The results in this text go back to article doi:10.1101/2024.05.10.593535, “Single residue changes to the histone core catalyze neofunctionalization and impose fitness trade-offs” (bioRxiv, 2024).

The target in the assay is T1, S. pombe 14xHis-Spt6(282-1159) (S. pombe, UniProt Q09915 282-1159).
T1 construct: transcription elongation factor Spt6, S. pombe, truncated version corresponding to residues 282-1159; Held on Ni-NTA resin by the 14xHis tag in the pulldowns; also called PZH_670; source: E. coli BL21(DE3), purified (Ni Sepharose, dialysis)
T1 sequence (looked up): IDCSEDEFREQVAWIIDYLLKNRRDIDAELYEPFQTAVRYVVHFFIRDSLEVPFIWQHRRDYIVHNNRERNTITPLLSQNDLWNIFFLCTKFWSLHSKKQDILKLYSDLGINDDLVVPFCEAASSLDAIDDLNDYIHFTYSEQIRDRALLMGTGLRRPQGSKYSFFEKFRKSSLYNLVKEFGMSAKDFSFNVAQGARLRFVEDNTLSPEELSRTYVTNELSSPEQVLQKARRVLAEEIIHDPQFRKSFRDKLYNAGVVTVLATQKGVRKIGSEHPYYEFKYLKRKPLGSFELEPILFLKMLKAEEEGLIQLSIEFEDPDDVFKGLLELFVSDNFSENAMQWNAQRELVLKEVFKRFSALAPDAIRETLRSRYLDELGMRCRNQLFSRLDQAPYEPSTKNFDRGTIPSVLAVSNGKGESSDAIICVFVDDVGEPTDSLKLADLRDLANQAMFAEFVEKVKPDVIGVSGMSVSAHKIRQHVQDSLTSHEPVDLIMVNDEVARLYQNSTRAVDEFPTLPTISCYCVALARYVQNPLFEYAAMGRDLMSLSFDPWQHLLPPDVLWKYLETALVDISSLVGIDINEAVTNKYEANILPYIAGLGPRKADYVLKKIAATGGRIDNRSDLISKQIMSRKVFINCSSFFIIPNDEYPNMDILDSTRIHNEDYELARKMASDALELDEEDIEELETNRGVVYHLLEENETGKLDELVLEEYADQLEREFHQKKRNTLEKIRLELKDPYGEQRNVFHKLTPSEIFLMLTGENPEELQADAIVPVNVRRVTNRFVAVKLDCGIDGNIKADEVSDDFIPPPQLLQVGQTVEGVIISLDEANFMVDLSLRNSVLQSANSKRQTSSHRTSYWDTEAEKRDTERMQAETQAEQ
In words: pull-down; 14xHis-Spt6(282-1159) bound to Ni-NTA resin as bait, recombinant histone fusion as prey; 50 mM Tris pH 8, 150 mM NaCl, 2.5 mM DTT, 0.1% tween-20, RT; washing under physiological salt (150 mM NaCl) or stringent (300 mM NaCl) conditions; colloidal Coomassie staining. The settings on record: both partners purified.

B1: S. pombe Pht1 (H2A.Z), full-length N-terminal GST fusion (natural protein)
chain: not shown
notes: histone H2A.Z (Pht1), S. pombe, full length; also called full-length Pht1
B1: the binding result is on record as “binds”.
